# Laboratory results published in patent US20240117454.
# Experiments:
# [1] = target: T1, Bovine neck ligament-derived elastin (SIGMA, E1625), P04985
# T1 chain: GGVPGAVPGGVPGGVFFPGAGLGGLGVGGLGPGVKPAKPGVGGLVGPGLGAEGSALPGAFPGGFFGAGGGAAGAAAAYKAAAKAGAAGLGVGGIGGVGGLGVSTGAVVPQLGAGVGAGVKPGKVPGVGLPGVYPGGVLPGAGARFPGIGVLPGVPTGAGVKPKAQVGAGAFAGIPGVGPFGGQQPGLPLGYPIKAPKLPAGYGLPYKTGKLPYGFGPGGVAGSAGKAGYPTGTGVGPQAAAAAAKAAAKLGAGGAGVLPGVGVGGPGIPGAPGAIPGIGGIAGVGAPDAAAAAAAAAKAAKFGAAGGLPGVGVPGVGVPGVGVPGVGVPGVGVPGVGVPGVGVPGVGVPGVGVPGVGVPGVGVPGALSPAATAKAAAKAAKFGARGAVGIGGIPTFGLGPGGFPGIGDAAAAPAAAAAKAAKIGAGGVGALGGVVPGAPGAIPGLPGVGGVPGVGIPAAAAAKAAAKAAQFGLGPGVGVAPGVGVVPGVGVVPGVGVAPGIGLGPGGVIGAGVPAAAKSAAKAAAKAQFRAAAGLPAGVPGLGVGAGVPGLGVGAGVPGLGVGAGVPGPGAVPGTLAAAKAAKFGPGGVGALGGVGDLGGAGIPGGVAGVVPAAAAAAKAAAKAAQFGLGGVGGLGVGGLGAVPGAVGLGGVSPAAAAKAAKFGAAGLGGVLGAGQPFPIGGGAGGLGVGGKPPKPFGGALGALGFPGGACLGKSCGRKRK
# [2] = target: bovine Achilles tendon-derived collagen (SIGMA, C9879)
Protein,"elastin degrading activity (amount of peptides liberated, relative value to savinase) [1]","collagen degrading activity (amount of peptides liberated, relative value to savinase) [2]"
beta-lytic metallopeptidase (BLP) (protein) SAQGHGLSGEDLVYSYDEMFDFDIDAYLAKHAPHLHKHSEEISHWAGYSGISPKVLIALMEQQSGAVSAKRATNRPFGKLARADGFGAQTREVALALRESLYERDPDGAKGPVTLARANPLQALFERSGDNEPAAALRGDGEFQLVYGRLFNEPRQAKAASDRFAKAGPDVQPLSPNGL,BLP was equivalent in elastin degrading activity to savinase,had significantly lower collagen degrading activity as compared to savinase
BLP homologue derived from Lysobacter gummosus (LgBLP) (protein) AERGLSGQDLVYSYDEMFDFDIDAYLAKNAPHLSRHAESISHWAGYSGISPKVLIALMEQQSGAITRKHAAADAAKRPFGALAKAKDFNGQTREVAQALREALYENDGPDAKGAVTVARANPLQALFERAGASQASAKLSGDGEFQLVYGRLFNEPRQAQAPSARFAKAGPDVQPLSP,LgBLP had lower elastin degrading activity as compared to savinase,
